The source of these data is FireProtDB (doi:10.1093/oxfordjournals.jbchem.a021544).

B1: Lysozyme C, P61626 (parent)
chain: MKALIVLGLVLLSVTVQGKVFERCELARTLKRLGMDGYRGISLANWMCLAKWESGYNTRATNYNAGDRSTDYGIFQINSRYWCNDGKTPGAVNACHLSCSALLQDNIADAVACAKRVVRDPQGIRAWVAWRNRCQNRDVRQYVQGCGV

What is called Tm is the temperature at which the thermal transition is half complete.

The variants in one data set derive from B1. To be noted: Homo sapiens; pH 2.67; Thermal; DSC; glycine 0.05 M; reversible: yes; structure 1LZ1; whole UniProt chain shown.
Regarding MKALIVLGLVLLSVTVQGKVFERCELARTLKRLGMDGYRGISLANWMCLAKWESGYNTRATNYNAGDRSTDYGTFQINSRYWCNDGKTPGAVNACHLSCSALLQDNIADAVACAKRVVRDPQGIRAWVAWRNRCQNRDVRQYVQGCGV [I74T], the Tm is 51.8 °C, the “heat capacity change of unfolding” value was 1 kcal/mol/K, the “unfolding enthalpy (calorimetric)” value stood at 87.8 kcal/mol and the “unfolding enthalpy (van 't Hoff)” value came to 90.9 kcal/mol.

Still in this data set, the particulars now being: Homo sapiens; pH 2.7; 64.9 °C; Thermal; DSC; glycine 0.05 M; reversible: yes; structure 1LZ1; whole UniProt chain shown.
Regarding MKALIVLGLVLLSVTVQGKVFERCELARTLKRLGMDGYRGISLANWMCLAKWESGYNTRATNYNAGDRSTDYGTFQINSRYWCNDGKTPGAVNACHLSCSALLQDNIADAVACAKRVVRDPQGIRAWVAWRNRCQNRDVRQYVQGCGV [I74T], the “ddG of mutation (higher = less stable)” value was 3.64 kcal/mol and the “heat capacity change of unfolding” value is 1.24 kcal/mol/K.

The data set is the same for the next values; noted with them: Homo sapiens; pH 2.7; Thermal; DSC; glycine 0.05 M; reversible: yes; structure 1LZ1; whole UniProt chain shown.
For MKALIVLGLVLLSVTVQGKVFERCELARTLKRLGMDGYRGISLANWMCLAKWESGYNTRATNYNAGDRSTDYGTFQINSRYWCNDGKTPGAVNACHLSCSALLQDNIADAVACAKRVVRDPQGIRAWVAWRNRCQNRDVRQYVQGCGV [I74T], the Tm came out at 52.4 °C; the “change of melting temperature, mutant - wild type (higher = more stable)” value is -12.5 °C; the “heat capacity change of unfolding” value turned out to be 1.24 kcal/mol/K; the “unfolding enthalpy (calorimetric)” value came out at 102 kcal/mol. Besides, the “unfolding enthalpy (van 't Hoff)” value came out at 108 kcal/mol.

The same data set, now with this note: Homo sapiens; pH 2.98; Thermal; DSC; glycine 0.05 M; reversible: yes; structure 1LZ1; whole UniProt chain shown.
Take MKALIVLGLVLLSVTVQGKVFERCELARTLKRLGMDGYRGISLANWMCLAKWESGYNTRATNYNAGDRSTDYGTFQINSRYWCNDGKTPGAVNACHLSCSALLQDNIADAVACAKRVVRDPQGIRAWVAWRNRCQNRDVRQYVQGCGV [I74T]: the Tm turned out to be 58 °C, the “heat capacity change of unfolding” value stood at 1.2 kcal/mol/K, the “unfolding enthalpy (calorimetric)” value stood at 93.3 kcal/mol and the “unfolding enthalpy (van 't Hoff)” value turned out to be 102 kcal/mol.

The same data set, now with this note: Homo sapiens; pH 3.11; Thermal; DSC; glycine 0.05 M; reversible: yes; structure 1LZ1; whole UniProt chain shown.
Regarding MKALIVLGLVLLSVTVQGKVFERCELARTLKRLGMDGYRGISLANWMCLAKWESGYNTRATNYNAGDRSTDYGTFQINSRYWCNDGKTPGAVNACHLSCSALLQDNIADAVACAKRVVRDPQGIRAWVAWRNRCQNRDVRQYVQGCGV [I74T], the Tm was 60.5 °C, the “heat capacity change of unfolding” value came out at 1.15 kcal/mol/K, the “unfolding enthalpy (calorimetric)” value is 97.6 kcal/mol and the “unfolding enthalpy (van 't Hoff)” value came out at 103 kcal/mol.
